{
  "source": "paper PMC4626678",
  "origin": "cited, not measured here",
  "molecular_target": "Trypsin (Bos taurus) (UniProt P00760)",
  "sequence (P00760 149-246)": "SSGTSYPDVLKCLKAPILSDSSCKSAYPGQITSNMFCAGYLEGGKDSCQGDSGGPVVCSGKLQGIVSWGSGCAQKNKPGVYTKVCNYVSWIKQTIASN",
  "data": [
    {"substance": "ShPI-1 (from UniProt P31713)", "values": [
      {"measurement": "Ki", "value": 0.11, "unit": "nM"}
    ]}
  ]
}
